# From patent US20180216138
# B1: Ferredoxin-NADP+ reductase from Clostridium acetobutylicum encoded by CA_C0764 (protein)
# chain: MDNPNLLSEEANRCLLCKNPRCKANCPINTPIPEIISLYKEGKIMEAGEILFNNNPLSVICSLVCIHEDQCKGNCVRGIKSEPIKFHEIEEEISEKYLKEAKLKNVQKDKDRIAIVGGGPAGITVAFVLANKGYNVTIFEAHDKIGGVLRYGIPEYRLTKKLVDKLEERLIEVGVKIRPNTVIGPVISLDRLLEDSYKAVFIGTGVWNPKTLDVKGETLGNVHFAIDYLKSPESYRLGKKVAVIGAGNVAMDAARTAKRNGAEVTILYRKSFNEMPASKQEIRETKEDGVEFKLFRAPIEITEEGIKVAFTENVTDAEGKIRTKIIEGKEEFFECDSVVVAVSQAPKDNIVSNTTGLDTKWGLIVTDEKGNTTKKGTFACGDVVTGAKTVVEAAAQAKVVAETIDEYCKNN
# Target: ferredoxin (CA_C0303) from Clostridium acetobutylicum
protein,measurement,value
B1,Ferredoxin NADP+ reductase specific activity,9.5 U/mg protein
